Laboratory results as given in patent US20060159695A1.

Experiments:
[1] = target: RSV F protein (A2 strain) G438A (human RSV, A2 strain) (UniProt P03420); experiment: cell ELISA, 293T cells expressing F
[2] = target: RSV F protein (A2 strain) C422S (human RSV, A2 strain) (UniProt P03420); experiment: cell ELISA, 293T cells expressing F
[3] = target: RSV F protein (A2 strain) D486N (human RSV, A2 strain) (UniProt P03420); experiment: cell ELISA, 293T cells expressing F
[4] = target: RSV F protein (A2 strain) F435Y (human RSV, A2 strain) (UniProt P03420); experiment: cell ELISA, 293T cells expressing F
[5] = target: RSV F protein (A2 strain) F483L (human RSV, A2 strain) (UniProt P03420); experiment: cell ELISA, 293T cells expressing F
[6] = target: RSV F protein (A2 strain) F483Y (human RSV, A2 strain) (UniProt P03420); experiment: cell ELISA, 293T cells expressing F
[7] = target: RSV F protein (A2 strain) F488L (human RSV, A2 strain) (UniProt P03420); experiment: cell ELISA, 293T cells expressing F
[8] = target: RSV F protein (A2 strain) F488Y (human RSV, A2 strain) (UniProt P03420); experiment: cell ELISA, 293T cells expressing F
[9] = target: RSV F protein (A2 strain) G430A (human RSV, A2 strain) (UniProt P03420); experiment: cell ELISA, 293T cells expressing F
[10] = target: RSV F protein (A2 strain) I431A (human RSV, A2 strain) (UniProt P03420); experiment: cell ELISA, 293T cells expressing F
[11] = target: RSV F protein (A2 strain) I431L (human RSV, A2 strain) (UniProt P03420); experiment: cell ELISA, 293T cells expressing F
[12] = target: RSV F protein (A2 strain) I432L (human RSV, A2 strain) (UniProt P03420); experiment: cell ELISA, 293T cells expressing F
[13] = target: RSV F protein (A2 strain) I432Q (human RSV, A2 strain) (UniProt P03420); experiment: cell ELISA, 293T cells expressing F
[14] = target: RSV F protein (A2 strain) I432T (human RSV, A2 strain) (UniProt P03420); experiment: cell ELISA, 293T cells expressing F
[15] = target: RSV F protein (A2 strain) K272M (human RSV, A2 strain) (UniProt P03420); experiment: cell ELISA, 293T cells expressing F
[16] = target: RSV F protein (A2 strain) K272N (human RSV, A2 strain) (UniProt P03420); experiment: cell ELISA, 293T cells expressing F
[17] = target: RSV F protein (A2 strain) K272Q (human RSV, A2 strain) (UniProt P03420); experiment: cell ELISA, 293T cells expressing F
[18] = target: RSV F protein (A2 strain) K272T (human RSV, A2 strain) (UniProt P03420); experiment: cell ELISA, 293T cells expressing F
[19] = target: RSV F protein (A2 strain) K427D (human RSV, A2 strain) (UniProt P03420); experiment: cell ELISA, 293T cells expressing F
[20] = target: RSV F protein (A2 strain) K427E (human RSV, A2 strain) (UniProt P03420); experiment: cell ELISA, 293T cells expressing F
[21] = target: RSV F protein (A2 strain) K427Q (human RSV, A2 strain) (UniProt P03420); experiment: cell ELISA, 293T cells expressing F
[22] = target: RSV F protein (A2 strain) K433D (human RSV, A2 strain) (UniProt P03420); experiment: cell ELISA, 293T cells expressing F
[23] = target: RSV F protein (A2 strain) K433L (human RSV, A2 strain) (UniProt P03420); experiment: cell ELISA, 293T cells expressing F
[24] = target: RSV F protein (A2 strain) K433N (human RSV, A2 strain) (UniProt P03420); experiment: cell ELISA, 293T cells expressing F
[25] = target: RSV F protein (A2 strain) K433Q (human RSV, A2 strain) (UniProt P03420); experiment: cell ELISA, 293T cells expressing F
[26] = target: RSV F protein (A2 strain) K433R (human RSV, A2 strain) (UniProt P03420); experiment: cell ELISA, 293T cells expressing F
[27] = target: RSV F protein (A2 strain) K433S (human RSV, A2 strain) (UniProt P03420); experiment: cell ELISA, 293T cells expressing F
[28] = target: RSV F protein (A2 strain) K433T (human RSV, A2 strain) (UniProt P03420); experiment: cell ELISA, 293T cells expressing F
[29] = target: RSV F protein (A2 strain) N428D (human RSV, A2 strain) (UniProt P03420); experiment: cell ELISA, 293T cells expressing F
[30] = target: RSV F protein (A2 strain) N428Q (human RSV, A2 strain) (UniProt P03420); experiment: cell ELISA, 293T cells expressing F
[31] = target: RSV F protein (A2 strain) N437D (human RSV, A2 strain) (UniProt P03420); experiment: cell ELISA, 293T cells expressing F
[32] = target: RSV F protein (A2 strain) R429K (human RSV, A2 strain) (UniProt P03420); experiment: cell ELISA, 293T cells expressing F
[33] = target: RSV F protein (A2 strain) R429S (human RSV, A2 strain) (UniProt P03420); experiment: cell ELISA, 293T cells expressing F
[34] = target: RSV F protein (A2 strain) S275F (human RSV, A2 strain) (UniProt P03420); experiment: cell ELISA, 293T cells expressing F
[35] = target: RSV F protein (A2 strain) S436F (human RSV, A2 strain) (UniProt P03420); experiment: cell ELISA, 293T cells expressing F
[36] = target: RSV F protein (A2 strain) S436T (human RSV, A2 strain) (UniProt P03420); experiment: cell ELISA, 293T cells expressing F
[37] = target: RSV F protein (A2 strain) T400A (human RSV, A2 strain) (UniProt P03420); experiment: cell ELISA, 293T cells expressing F
[38] = target: RSV F protein (A2 strain) T434S (human RSV, A2 strain) (UniProt P03420); experiment: cell ELISA, 293T cells expressing F
[39] = target: RSV F protein (A2 strain) V447A (human RSV, A2 strain) (UniProt P03420); experiment: cell ELISA, 293T cells expressing F
[40] = target: Wild-type RSV F protein (subgroup A, A2 strain) (human RSV, A2 strain) (UniProt P03420); experiment: cell ELISA, 293T cells expressing F
[41] = target: Wild-type RSV F protein (subgroup B, 18537 strain) (human RSV, 18537 strain) (UniProt P13843); experiment: cell ELISA, 293T cells expressing F
[42] = target: RSV F protein on human RSV virus (Long strain) (human RSV, Long strain) (UniProt P12568); experiment: cell-based or functional assay
[43] = target: soluble, extracellular domain of recombinantly expressed RSV F protein (human RSV); experiment: SPR (BIAcore 3000), F protein amine-coupled to CM5 chip

chimeric 101F mAb (antibody) gave a % mAb binding relative to wild-type [1] of 9.2%.

mAb19 (antibody) gave a % mAb binding relative to wild-type [2] of 194%, a % mAb binding relative to wild-type [3] of 30.7% and a % mAb binding relative to wild-type [4] of 9.2%. It also gave a % mAb binding relative to wild-type [5] of 101%, a % mAb binding relative to wild-type [6] of 141% and a % mAb binding relative to wild-type [7] of 40%. For the same substance, the % mAb binding relative to wild-type [8] was 56%, the % mAb binding relative to wild-type [9] was 0.15% and the % mAb binding relative to wild-type [1] was 19%. For the same substance, the % mAb binding relative to wild-type [10] was 81.8%, the % mAb binding relative to wild-type [11] was 65.5% and the % mAb binding relative to wild-type [12] was 64.4%. For the same substance, the % mAb binding relative to wild-type [13] was 57.9%, the % mAb binding relative to wild-type [14] was 170% and the % mAb binding relative to wild-type [15] was 100%. It also gave a % mAb binding relative to wild-type [16] of 62.3%, a % mAb binding relative to wild-type [17] of 88.7% and a % mAb binding relative to wild-type [18] of 68%. The % mAb binding relative to wild-type [19] was -12.7%, the % mAb binding relative to wild-type [20] was 68.7% and the % mAb binding relative to wild-type [21] was 155%. The % mAb binding relative to wild-type [22] was 1.6%, the % mAb binding relative to wild-type [23] was 24.5% and the % mAb binding relative to wild-type [24] was 28.7%. The % mAb binding relative to wild-type [25] was 47.4%, the % mAb binding relative to wild-type [26] was 23.1% and the % mAb binding relative to wild-type [27] was 112%. For the same substance, the % mAb binding relative to wild-type [28] was 64.4%, the % mAb binding relative to wild-type [29] was 121% and the % mAb binding relative to wild-type [30] was 194%. For the same substance, the % mAb binding relative to wild-type [31] was 33.2%, the % mAb binding relative to wild-type [32] was 11.2% and the % mAb binding relative to wild-type [33] was 3.9%. The % mAb binding relative to wild-type [34] was 31.7%, the % mAb binding relative to wild-type [35] was 163% and the % mAb binding relative to wild-type [36] was 85.8%. It also gave a % mAb binding relative to wild-type [37] of 161%, a % mAb binding relative to wild-type [38] of 84.9% and a % mAb binding relative to wild-type [39] of 62.7%. It also gave a % mAb binding relative to wild-type [40] of 99.9% and a % mAb binding relative to wild-type [41] of 105%.

In the case of palivizumab (antibody), the RSV neutralization IC50 (Palivizumab) [42] is reported as 0.1 µg/mL and the Kd [43] is reported as 1.1 nM.

Substance palivizumab Fab has an RSV neutralization IC50 (Palivizumab Fab) [42] of 3.2 µg/mL, a Kd [43] of 1.5 nM and a koff [43] of 0.0011 s⁻¹. For the same substance, the kon [43] was 720000 M⁻¹ s⁻¹.
